{"source": "paper PMC9345960", "about": "“ERK1/2 inhibits Cullin 3/SPOP-mediated PrLZ ubiquitination and degradation to modulate prostate cancer progression” (Cell Death and Differentiation, 2022)", "biological_target": "T1, HA-SPOP, wild type (UniProt O43791 1-374)", "T1 construct": "SPOP (Speckle-type POZ protein); also called HA-SPOP WT; pcDNA3-HA-SPOP; source: 293T, transfected, in lysate; also purified from transfected 293T cells using HA-tag beads", "T1 sequence (O43791 whole entry)": "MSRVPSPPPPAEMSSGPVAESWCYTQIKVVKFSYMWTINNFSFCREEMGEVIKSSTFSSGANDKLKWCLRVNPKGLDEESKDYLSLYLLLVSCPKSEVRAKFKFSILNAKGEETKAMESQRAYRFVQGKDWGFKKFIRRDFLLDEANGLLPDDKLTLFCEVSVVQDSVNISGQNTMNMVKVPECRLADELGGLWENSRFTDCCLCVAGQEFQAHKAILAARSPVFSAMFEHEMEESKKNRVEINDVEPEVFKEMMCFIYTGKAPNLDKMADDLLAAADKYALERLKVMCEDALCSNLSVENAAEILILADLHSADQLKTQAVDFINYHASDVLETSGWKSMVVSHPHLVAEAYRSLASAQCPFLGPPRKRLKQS", "experiment": "pull-down; GST pull-down: purified GST-PrLZ and HA-SPOP or His-SPOP incubated 3 h at 4 °C, washed with RIPA buffer, western blot (Fig. 2c: antibody against His)", "details": "both partners purified", "data": [{"binder": "GST-PrLZ, wild type (bacterial) (natural protein, UniProt P55327 1-224, looked up, Prostate Leucine Zipper (PrLZ); also called GST-PrLZ WT; pGEX-4T-1-GST-PrLZ; source: E. coli BL21, purified (Glutathione Sepharose 4B)) MDCREMDLYEDYQSPFDFDAGVNKSYLYLSPSGNSSPPGSPTLQKFGLLRTDPVPEEGEDVAATISATETLSEEEQEELRRELAKVEEEIQTLSQVLAAKEKHLAEIKRKLGINSLQELKQNIAKGWQDVTATSAYKKTSETLSQAGQKASAAFSSVGSVITKKLEDVKNSPTFKSFEEKVENLKSKVGGTKPAGGDFGEVLNSAANASATTTEPLPEKTQESL", "values": [{"measurement": "binding result", "result": "binds"}]}]}
